Measured values from patent US20250213694A1 (SHANGHAI SIMNOVA BIOTECHNOLOGY, published 2025).

Biological target: T1, human GPRC5D on GPRC5D-overexpressing cells (human, UniProt Q9NZD1 1-345)
T1 construct: whole, on cells; also called also tested on NCI-H929 cells
Test: cell-based ELISA and FACS on human GPRC5D-overexpressing cells and NCI-H929 cells; chimeric human IgG1 format

T1 sequence (Q9NZD1 whole entry): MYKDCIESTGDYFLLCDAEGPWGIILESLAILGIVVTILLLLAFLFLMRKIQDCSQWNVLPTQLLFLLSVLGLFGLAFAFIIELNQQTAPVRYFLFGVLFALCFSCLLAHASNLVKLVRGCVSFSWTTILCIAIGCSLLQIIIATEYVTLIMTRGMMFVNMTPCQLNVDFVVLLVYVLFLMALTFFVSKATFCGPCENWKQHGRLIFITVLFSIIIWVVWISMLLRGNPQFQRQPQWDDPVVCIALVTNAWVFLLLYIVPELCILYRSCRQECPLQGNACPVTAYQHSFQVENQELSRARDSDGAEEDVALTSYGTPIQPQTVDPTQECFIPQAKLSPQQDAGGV

Row | Binder | binding result
1 | GPRC5D-mab03 (antibody, V domains shown, Murine variable regions; Screened as a chimeric antibody containing the constant region of human IgG1) VH: QAYLQQSGAELVRPGASVKMSCKASGYTFTSYNMNWVKQTPRQGLEWIGAIYPGNGDTSYNQKFKGKATLTVDKSSSTAYMQLSSLTSEDSAVYFCARVRLRYAMDYWGQGTSVTVSS VL: DIVMTQSQKFMSTTVGDRVTITCKASQNVGTAVAWYQQKPGQSPKLLISSASNRYTGVPERFTGSGSGTDFTLTIRNMQSEDLADYFCQQYSSYPWTFGGGTELEIK | binds
2 | GPRC5D-mab06 (antibody, V domains shown, Murine variable regions; Screened as a chimeric antibody containing the constant region of human IgG1) VH: QVQLKQSGPGLVQPSQSLSITCTVSGFSLTSYGVNWIRQSPGKGLEWLGVIWSGGNTDYNAAFRSRLSISKDNSKSQVFFKMNSLQADDTAIYYCARGQLGRPYWYFDVWGTGTSVTVSS VL: DIVMTQSHKFMSTSVGDRVSITCKASQDVRTAVAWYQQKPGQSPKLLIYWASTRHTGVPDRFTGSRSGTDYTLTISSVQAEDLALYYCQQHYSTPLTFGAGTKLELK | binds
